From patent US20210024607A1, “EXPRESSION VECTORS FOR CHIMERIC ENGULFMENT RECEPTORS, GENETICALLY MODIFIED HOST CELLS, AND USES THEREOF” (CERo Therapeutics, Inc., priority 2018, published 2021)

Experiments:
[1] = tested on: phosphatidylserine-coated beads; experiment: Phagocytic uptake of phosphatidylserine-coated latex beads; type: cell-based, human; conditions: 30 minutes incubation, transduced CD8+ T cells
Source text: Streptavidin coated latex beads were bound with biotin-phosphatidylserine and used for phagocytosis assays.

[2] = tested on: HPV+ SCC152 head and neck cancer cells; experiment: FACS phagocytosis assay with pHrodo-labeled SCC152 cells; type: cell-based, human; conditions: CellTrace-violet labeled T cells, compared with mock transduced T cells
Protocol: CellTrace-violet labeled mock transduced, HPV E7-TCR transduced T cells, and HPV E7-TCR/CER29 tandem expression cassette transduced T cells were co-cultured pHrodo-red labeled HPV+SCC152 head and neck cancer cells.
The ability of CER modified-T cells to engulf target cells and recapitulate engulfment-signaling events was evaluated in co-culture assays. T cells were transduced with a nucleic acid encoding HPV E7 specific TCR (polypeptide sequence comprising SEQ ID NO:158) or tandem expression cassette encoding HPV E7 specific TCR+ CER29 (polypeptide sequence comprising SEQ ID NO:169). pHrodo-labeled HPV+ SCC152 head and neck cancer cells were co-incubated with mock transduced T cells, HPV E7 TCR transduced T cells, or HPV E7 TCR/CER29-transduced T cells.

B1: HPV16 E7 TCR: HPV16 E7 specific TCR (WO2015/184228), SEQ ID NO:90; control transduced alone into T cells (protein)
chain: MAPGLLCWALLCLLGAGLVDAGVTQSPTHLIKTRGQQVTLRCSPKSGHDTVSWYQQALGQGPQFIFQYYEEEERQRGNFPDRFSGHQFPNYSSELNVNALLLGDSALYLCASSLGWRGGRYNEQFFGPGTRLTVLEDLRNVTPPKVSLFEPSKAEIANKQKATLVCLARGFFPDHVELSWWVNGKEVHSGVCTDPQAYKESNYSYCLSSRLRVSATFWHNPRNHFRCQVQFHGLSEEDKWPEGSPKPVTQNISAEAWGRADCGITSASYQQGVLSATILYEILLGKATLYAVLVSTLVVMAMVKRKNSRAKRSGSGATNFSLLKQAGDVEENPGPMWGVFLLYVSMKMGGTTGQNIDQPTEMTATEGAIVQINCTYQTSGFNGLFWYQQHAGEAPTFLSYNVLDGLEEKGRFSSFLSRSKGYSYLLLKELQMKDSASYLCASVDGNNRLAFGKGNQVVVIPNIQNPEPAVYQLKDPRSQDSTLCLFTDFDSQINVPKTMESGTFITDKCVLDMKAMDSKSNGAIAWSNQTSFTCQDIFKETNATYPSSDVPCDATLTEKSFETDMNLNFQNLLVIVLRILLLKVAGFNLLMTLRLWSS
modifications: HPV16 E7 TCRbeta chain-P2A-TCRalpha chain
notes: control transduced alone into T cells
[1]
  uptake of phosphatidylserine-coated latex beads: do not exhibit uptake of latex beads coated with phosphatidylserine
[2]
  phagocytosis of pHrodo-labeled SCC152 cells by FACS: no difference in phagocytosis between mock-transduced T cells and E7 TCR transduced T cells
